Laboratory results taken from the supplement of paper PMC11246515.
± gives the standard deviation of the averaged measurements.

Assay: total protein half-life in vivo (active degradation + dilution); higher = more stable protein
[1] = E. coli NCM3722 delta-clpP delta-lon delta-hslV, growth: N-lim chemostat, doubling time 6 h
[2] = E. coli NCM3722 delta-hslV, growth: N-lim chemostat, doubling time 6 h
[3] = E. coli NCM3722 delta-lon, growth: N-lim chemostat, doubling time 6 h
[4] = E. coli NCM3722 delta-smpB, growth: N-lim chemostat, doubling time 6 h
[5] = wild type E. coli NCM3722, growth: C-lim chemostat, doubling time 3 h
[6] = wild type E. coli NCM3722, growth: C-lim chemostat, doubling time 6 h
[7] = wild type E. coli NCM3722, growth: C-lim chemostat, doubling time 12 h
[8] = wild type E. coli NCM3722, growth: N-lim chemostat, doubling time 6 h
[9] = wild type E. coli NCM3722, growth: N-lim chemostat, doubling time 12 h
[10] = wild type E. coli NCM3722, growth: P-lim chemostat, doubling time 6 h
[11] = wild type E. coli NCM3722, growth: P-lim chemostat, doubling time 12 h
[12] = E. coli NCM3722 delta-clpP, growth: N-lim chemostat, doubling time 6 h

Row | Sequence | total protein half-life in vivo [1] [h] | total protein half-life in vivo [2] [h] | total protein half-life in vivo [3] [h] | total protein half-life in vivo [4] [h] | total protein half-life in vivo [5] [h] | total protein half-life in vivo [6] [h] | total protein half-life in vivo [7] [h] | total protein half-life in vivo [8] [h] | total protein half-life in vivo [9] [h] | total protein half-life in vivo [10] [h] | total protein half-life in vivo [11] [h] | total protein half-life in vivo [12] [h]
1 | MHFLRRPISLRQRLILTIGAILLVFELISVFWLWHESTEQIQLFEQALRDNRNNDRHIMREIREAVASLIVPGVFMVSLTLFICYQAVRRITRPLAELQKELEARTADNLTPIAIHSATLEIEAVVSALNDLVSRLTSTLDNERLFTADVAHELRTPLAGVRLHLELLAKTHHIDVAPLVARLDQMMESVSQLLQLARAGQSFSSGNYQHVKLLEDVILPSYDELSTMLDQRQQTLLLPESAADITVQGDATLLRMLLRNLVENAHRYSPQGSNIMIKLQEDDGAVMAVEDEGPGIDESKCGELSKAFVRMDSRYGGIGLGLSIVSRITQLHHGQFFLQNRQETSGTRAWVRLKKDQYVANQI | 5.995 ± 0.044 | 4.89 ± 1.3 | 6.2 ± 1.3 | 5.5 ± 0.35 | 3.17 ± 0.22 | 5.99 ± 0.74 | 11.5 ± 0.59 | 5.9 ± 0.18 | 12.7 ± 0.62 | 6.25 ± 0.75 | 11.1 ± 1.5 | –
2 | MHITLRQLEVFAEVLKSGSTTQASVMLALSQSAVSAALTDLEGQLGVQLFDRVGKRLVVNEHGRLLYPRALALLEQAVEIEQLFREDNGAIRIYASSTIGNYILPAVIARYRHDYPQLPIELSVGNSQDVMQAVLDFRVDIGFIEGPCHSTEIISEPWLEDELVVFAAPTSPLARGPVTLEQLAAAPWILRERGSGTREIVDYLLLSHLPKFEMAMELGNSEAIKHAVRHGLGISCLSRRVIEDQLQAGTLSEVAVPLPRLMRTLWRIHHRQKHLSNALRRFLDYCDPANVPR [P0ACR4] | 5.84 ± 0.54 | 5.48 | 5.76 ± 0.15 | 6.21 | 2.32 | 5.78 ± 0.65 | 13 | 4.98 ± 0.021 | 9.4289 ± 0.0056 | 5.59 ± 0.33 | 10.5 ± 1.9 | 7.58
3 | MHNQAPIQRRKSTRIYVGNVPIGDGAPIAVQSMTNTRTTDVEATVNQIKALERVGADIVRVSVPTMDAAEAFKLIKQQVNVPLVADIHFDYRIALKVAEYGVDCLRINPGNIGNEERIRMVVDCARDKNIPIRIGVNAGSLEKDLQEKYGEPTPQALLESAMRHVDHLDRLNFDQFKVSVKASDVFLAVESYRLLAKQIDQPLHLGITEAGGARSGAVKSAIGLGLLLSEGIGDTLRVSLAADPVEEIKVGFDILKSLRIRSRGINFIACPTCSRQEFDVIGTVNALEQRLEDIITPMDVSIIGCVVNGPGEALVSTLGVTGGNKKSGLYEDGVRKDRLDNNDMIDQLEARIRAKASQLDEARRIDVQQVEK | 4.85 ± 0.2 | 3.23 ± 0.18 | 3.18 ± 0.078 | 2.88 ± 0.19 | 2.61 ± 0.25 | 4.69 ± 0.24 | 7.78 ± 0.65 | 3.05 ± 0.092 | 4.29 ± 0.3 | 4.01 ± 0.28 | 7.02 ± 0.51 | 2.41 ± 0.11
4 | MHRQSFFLVPLICLSSALWAAPATVNVEVLQDKLDHPWALAFLPDNHGMLITLRGGELRHWQAGKGLSAPLSGVPDVWAHGQGGLLDVVLAPDFAQSRRIWLSYSEVGDDGKAGTAVGYGRLSDDLSKVTDFRTVFRQMPKLSTGNHFGGRLVFDGKGYLFIALGENNQRPTAQDLDKLQGKLVRLTDQGEIPDDNPFIKESGARAEIWSYGIRNPQGMAMNPWSNALWLNEHGPRGGDEINIPQKGKNYGWPLATWGINYSGFKIPEAKGEIVAGTEQPVFYWKDSPAVSGMAFYNSDKFPQWQQKLFIGALKDKDVIVMSVNGDKVTEDGRILTDRGQRIRDVRTGPDGYLYVLTDESSGELLKVSPRN | 1.95 ± 0.037 | 1.44 ± 0.036 | – | 1.43 ± 0.033 | 1.63 ± 0.43 | 4.09 | 5.83 ± 1.6 | 2.13 | – | – | 6.77 | 2.22 ± 1.1
5 | MHSERAPFFLKLAAWGGVVFLHFPILIIAAYAFNTEDAAFSFPPQGLTLRWFSVAAQRSDILDAVTLSLKVAALATLIALVLGTLAAAALWRRDFFGKNAISLLLLLPIALPGIVTGLALLTAFKTINLEPGFFTIVVGHATFCVVVVFNNVIARFRRTSWSLVEASMDLGANGWQTFRYVVLPNLSSALLAGGMLAFALSFDEIIVTTFTAGHERTLPLWLLNQLGRPRDVPVTNVVALLVMLVTTLPILGAWWLTREGDNGQ [P0AFR9] | 6.7 | – | – | – | – | – | – | – | – | – | – | –
6 | MHSQIWVVSTLLISIVLIVLTIVKFKFHPFLALLLASFFVGTMMGMGPLDMVNAIESGIGGTLGFLAAVIGLGTILGKMMEVSGAAERIGLTLQRCRWLSVDVIMVLVGLICGITLFVEVGVVLLIPLAFSIAKKTNTSLLKLAIPLCTALMAVHCVVPPHPAALYVANKLGADIGSVIVYGLLVGLMASLIGGPLFLKFLGQRLPFKPVPTEFADLKVRDEKTLPSLGATLFTILLPIALMLVKTIAELNMARESGLYILVEFIGNPITAMFIAVFVAYYVLGIRQHMSMGTMLTHTENGFGSIANILLIIGAGGAFNAILKSSSLADTLAVILSNMHMHPILLAWLVALILHAAVGSATVAMMGATAIVAPMLPLYPDISPEIIAIAIGSGAIGCTIVTDSLFWLVKQYCGATLNETFKYYTTATFIASVVALAGTFLLSFII | – | – | – | 4.91 | – | 5.8 | 11.9 | – | 9.38 | – | – | –
7 | MHVTAKPSSFQCNLKCDYCFYLEKESQFTHEKWMDDSTLKEFIKQYIAASGNQVYFTWQGGEPTLAGLDFFRKVIHYQQRYAGQKRIFNALQTNGILLNNEWCAFLKEHEFLVGISIDGPQELHDRYRRSNSGNGTFAKVIAAIERLKSYQVEFNTLTVINNVNVHYPLEVYHFLKSIGSKHMQFIELLETGTPNIDFSGHSENTFRIIDFSVPPTAYGKFMSTIFMQWVKNDVGEIFIRQFESFVSRFLGNGHTSCIFQESCKDNLVVESNGDIYECDHFVYPQYKIGNINKSELKTMNSVQLTAQKKRIPAKCQQCAYKPICNGGCPKHRITKVNNETVSYFCEGYKILFSTMVPYMNAMVELAKNRVPLYHIMDVAKQMENN | – | – | – | – | 1.12 ± 0.083 | 1.77 ± 0.19 | 2.03 | – | – | – | – | –
8 | MHWQTHTVFNQPIPLNNSNLYLSDGALCEAVTREGAGWDSDFLASIGQQLGTAESLELGRLANVNPPELLRYDAQGRRLDDVRFHPAWHLLMQALCTNRVHNLAWEEDARSGAFVARAARFMLHAQVEAGSLCPITMTFAATPLLLQMLPAPFQDWTTPLLSDRYDSHLLPGGQKRGLLIGMGMTEKQGGSDVMSNTTRAERLEDGSYRLVGHKWFFSVPQSDAHLVLAQTAGGLSCFFVPRFLPDGQRNAIRLERLKDKLGNRSNASCEVEFQDAIGWLLGLEGEGIRLILKMGGMTRFDCALGSHAMMRRAFSLAIYHAHQRHVFGNPLIQQPLMRHVLSRMALQLEGQTALLFRLARAWDRRADAKEALWARLFTPAAKFVICKRGMPFVAEAMEVLGGIGYCEESELPRLYREMPVNSIWEGSGNIMCLDVLRVLNKQAGVYDLLSEAFVEVKGQDRYFDRAVRRLQQQLRKPAEELGREITHQLFLLGCGAQMLKYASPPMAQAWCQVMLDTRGGVRLSEQIQNDLLLRATGGVCV | 4.81 ± 0.12 | 5.583 ± 0.035 | 4.72 ± 0.15 | 5.28 ± 0.11 | 3.296 ± 0.026 | 5.91 ± 0.25 | 11.3 ± 0.59 | 5.18 ± 0.13 | 11.5 ± 0.84 | 6.51 ± 0.25 | 11.5 ± 0.058 | 4.91 ± 0.18
